Measurements as given in patent US20260258115A1 (MAPP BIOPHARMACEUTICAL, published 2026).

Legend:
[1] = target: T1, RSV postfusion F (postF), subtype A (respiratory syncytial virus subtype A, UniProt P03420 26-513); assay: BLI
T1 construct: also called Postfusion subtype A; F deltaFP

[2] = target: T2, RSV prefusion F (preF), subtype B (respiratory syncytial virus subtype B); assay: BLI, IgG
T2 construct: also called Prefusion subtype B

[3] = target: RSV prefusion F (preF), subtype A (respiratory syncytial virus, subtype A, UniProt P03420 26-513); assay: BLI, IgG

B1: ADI-14366 (antibody, V domains shown)
VH: QVQLVQSGTEVKKPGASVKVSCKASGYTFNMYGVSWVRQAPGQGLEWMGWISAYNGNTNYAQKFQGRVTMTIDTSTTTAYMELRSLRSDDTAMYYCARDFQAEEPLSNWFDPWGQGTLVTVSS
VL: DIVMTQTPSSLSASVGDRVIITCRASQSISRYINWYQKKPGKAPKFLIYAVSSLGSGVPSRFSGSGSGTDFTLTISSLQPEDFATYYCQQSYSTPFTFGPGTKVDIK
notes: full-length IgG; also called Ab 34
binding result [1]: no binding
Kd [2]: 18 nM

B2: ADI-19493 (antibody, V domains shown)
VH: QVQLQQWGAGLLKPSETLSLTCAVYGGSFSGYYWSWIRQPPGKGLEWIGEINHSGSTNYNPSLKSRVTISVDTSKNQFSLKLSSVTAADTAVYYCARLIENTRVGEYYFDYWGQGTLVTVSS
VL: not shown
notes: full-length IgG
binding result [1]: no binding
Kd [2]: 22.6 nM

B3: ADI-24856 (antibody, V domains shown)
VH: QVQLVQSGAEVKKPGASVKVSCKASGYTFTSYGISWVRQAPGQGLEWMGWISAYNGNTNYAQKLQGRVTMTTDTSTSTAYMELRSLRSDDTAVYYCARAGIVVVPKYYYYMDVWGKGTTVTVSS
VL: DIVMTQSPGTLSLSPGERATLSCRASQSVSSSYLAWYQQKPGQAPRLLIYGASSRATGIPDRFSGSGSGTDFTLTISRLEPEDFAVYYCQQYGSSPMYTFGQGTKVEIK
notes: full-length IgG
binding result [1]: no binding
Kd [2]: 4.91 nM

B4: ADI-21048 (antibody, V domains shown)
VH: EVQLVESGAEVKKPGASVKVSCKASGYTFSSHAISWVRQAPGHGLEWMGWISVFNGNTNYAQKFQGRVTMTTDTSTSTAYMELRSLRSDDAAVYYCAREVIGVGEFYFDYWGQGTLVTVSS
VL: QSVLTQPPSVSVAPGQTARITCGGNNIGSKSVHWYQQKAGQAPVLVVYDDSDRPSGIPERFLGSNSGNTATLTISRVEAGDEADYYCQVWDSSGDFHVFGTGTKVTVL
Kd [3]: 0.111 nM

B5: ADI-14575 (antibody, V domains shown)
VH: QVQLVQSGAEVKKPGSSVKVSCKASGGTFSSYTISWVRQAPGQGLEWMGRIIPILGIANYAQKFQGRVTITADKSTSTAYMELSSLRSEDTAVYYCARPSSSSFAFDYWGQGTLVTVSS
VL: QSVLTQPASVSGSPGQSITISCTGTSSDVGGYNYVSWYQQHPGKAPKLMIYDVSNRPSGVSNRFSGSKSGNTASLTISGLQAEDEADYYCSSYTSSSTPVVFGGGTKVTVL
Kd [3]: 11.2 nM

B6: ADI-14392 (antibody, V domains shown)
VH: EVQLLESGAEVKKPGSSVKVSCKASGGTFSSYGISWVRQAPGQGLEWMGGIIPIFGTSNYAQKFQGRVTITADESTSTAYMELSSLRSEDTAVYYCALDSSGRARYYAMDVWGQGTTVTVSS
VL: DIQVTQSPATLSLSPGERATLSCRASQSVSSYLAWYQQKPGQAPRLLIYDASNRATGIPARFSGSGSGTDFTLTISSLEPEDFAVYYCQQRNNWPPTFGPGTKVEIK
notes: full-length IgG; also called Ab 59
binding result [1]: no binding
Kd [2]: 72.5 nM

B7: ADI-21035 (antibody, V domains shown)
VH: EVQLVESGHEVKKPGASVKVSCKASGYTFPSYGISWVRQAPGQGLEWMGWIVPYNGNTKYAQRFQGRITMTTDSPTSTASMELRGLRSDDTAVYYCARVFGDGYSYGYEYWGQGTLVTVSS
VL: DIVLTQSPSTLSASVGDRVTITCRASQSISIWLAWYQQKPGKAPKLLIYKTSELVSGVPSRFSGSGSGTEFTLTISGLQPDDFATYYCQQGNSYSHTFGQGTKVEIK
Kd [3]: 10.3 nM

B8: ADI-24855 (antibody, V domains shown)
VH: EVQLVESGGGLVKPGGSLRLSCAASGFTFSSYSMNWVRQAPGKGLEWVSSISSSSSYIYYADSVKGRFTISRDNAKNSLYLQMNSLRAEDTAVYYCARRYCTNGVCYDAFDIWGQGTMVTVSS
VL: QSVVTQPPSVSGAPGQRVTISCTGSSSNIGAGYDVHWYQQLPGTAPKLLIYGNSNRPSGVPDRFSGSKSGTSASLAITGLQAEDEADYYCQSYDSSLSYVFGTGTKVTVL
notes: full-length IgG
binding result [1]: no binding
Kd [2]: 28 nM

B9: ADI-24861 (antibody, V domains shown)
VH: QVQLVQSGGGLVKPGGSLRLSCAASGFTFSSYSMNWVRQAPGKGLEWVSSISGGSSYIYYADSVKGRFTISRDNAKNSLYLQMNSLRAEDTAVYYCAREAYYYDSSGLKWFDPWGQGTLVTVSS
VL: QSVLTQPPSVSGAPGQRVTISCTGSSSNIGAGYDVHWYQQLPGTAPKLLIYGNSNRPSGVPDRFSGSKSGTSASLAITGLQAEDEADYYCQSYDSSLGWVFGGGTKLTVL
notes: full-length IgG
binding result [1]: no binding
Kd [2]: 0.461 nM

B10: ADI-25577 (antibody, V domains shown)
VH: QVTLKESGGGLVKPGGSLRLSCAASGFTFSSYSMNWVRQAPGKGLEWVSSISSSSSYIYYADSVKGRFTISRDNAKNSLYLQMNSLRAEDTAVYYCARYSSSLGAFDIWGQGTMVTVSS
VL: QSALTQPPSVSGAPGQRVTISCTGSSSNIGAGYDVHWYQQLPGTAPKLLIYGNSNRPSGVPDRFSGSKSGTSASLAITGLQAEDEADYYCQSYDSSLSDVFGTGTKLTVL
notes: full-length IgG
binding result [1]: no binding
Kd [2]: 44.2 nM

B11: ADI-22771 (antibody, V domains shown)
VH: EVQLVESGGGLVKPGGSLRLSCAASGFTFSSYSMNWVRQAPGKGLEWVSSISSSSSYIYYADSVKGRFTISRDNAKNSLYLQMNSLRAEDTAVYYCARDYSSGWYYFDYWGQGTLVTVSS
VL: QPVLTQPPSVSGAPGQRVTISCTGSSSNIGAGYDVHWYQQLPGTAPKLLIYGNSNRPSGVPDRFSGSKSGTSASLAITGLQAEDEADYYCQSYDSSLSGSVFGGGTKLTVL
notes: full-length IgG; also called Ab 350
binding result [1]: no binding
Kd [2]: 9.41 nM

B12: ADI-25565 (antibody, V domains shown)
VH: EVQLVESGGGLVKPGGSLRLSCAASGFTFSSYSMNWVRQAPGKGLEWVSSISSSSSYIYYADSVKGRFTISRDNAKNSLYLQMNSLRAEDTAVYYCARIRFDYGSGSYAFDIWGQGTMVTVSS
VL: QPVLTQPPSVSGAPGQRVTISCTGSSSNIGAGYDVHWYQQLPGTAPKLLIYGNSNRPSGVPDRFSGSKSGTSASLAITGLQAEDEADYYCQSYDSSLSGSVFGGGTKLTVL
notes: full-length IgG
binding result [1]: no binding
Kd [2]: 35.7 nM

B13: ADI-19467 (antibody, V domains shown)
VH: EVQLVESGGGLVKPGGSLRLSCAASGFTFSSYSMNWVRQAPGKGLEWVSSISSSSSYIYYADSVKGRFTISRDNAKNSLYLQMNSLRAEDTAVYYCASLSSSSELGYYFDYWGQGTLVTVSS
VL: QPVLTQPPSVSGAPGQRVTISCTGSSSNIGAGYDVHWYQQLPGTAPKLLIYGNSNRPSGVPDRFSGSKSGTSASLAITGLQAEDEADYYCQSYDSSLSGYVFGTGTKLTVL
notes: full-length IgG
binding result [1]: no binding
Kd [2]: 37.7 nM

B14: ADI-24848 (antibody, V domains shown)
VH: EVQLVESGGGLVKPGGSLRLSCAASGFTFSSYSMNWVRQAPGKGLEWVSSISSSSSYIYYADSVKGRFTISRDNAKNSLYLQMNSLRAEDTAVYYCARDTVVAGIYFDYWGQGTLVTVSS
VL: QSVLTQPPSVSGAPGQRVTISCTGSSSNIGAGYDVHWYQQLPGTAPKLLIYGNSNRPSGVPDRFSGSKSGTSASLAITGLQAEDEADYYCQSYDSSLSGVVFGGGTKLTVL
notes: full-length IgG
binding result [1]: no binding
Kd [2]: 35.6 nM

B15: ADI-25559 (antibody, V domains shown)
VH: EVQLLESGGGLVKPGGSLRLSCAASGFTFSSYSMNWVRQAPGKGLEWVSSISSSSSYIYYADSVKGRFTISRDNAKNSLYLQMNSLRAEDTAVYYCARDAAAKYYFDYWGQGTLVTVSS
VL: QPVLTQPPSVSGAPGQRVTISCTGSSSNIGAGYDVHWYQQLPGTAPKLLIYGNSNRPSGVPDRFSGSKSGTSASLAITGLQAEDEADYYCQSYDSSLSGKVFGTGTKLTVL
notes: full-length IgG
binding result [1]: no binding
Kd [2]: 33.3 nM
